Drawing on PMC10613257 (2023), this text covers Kd for 1 molecule.

For this assay, the target named is insulin-like growth factor binding protein 5 (IGFBP5), full length, wild type (UniProt P24593 21-272, labelled with FAM-maleimide, 6-isomer after reduction with TCEP (in the fluorescence polarisation assay)). The assay is described as follows: FP.
Chain of insulin-like growth factor binding protein 5 (IGFBP5), full length, wild type (P24593 21-272): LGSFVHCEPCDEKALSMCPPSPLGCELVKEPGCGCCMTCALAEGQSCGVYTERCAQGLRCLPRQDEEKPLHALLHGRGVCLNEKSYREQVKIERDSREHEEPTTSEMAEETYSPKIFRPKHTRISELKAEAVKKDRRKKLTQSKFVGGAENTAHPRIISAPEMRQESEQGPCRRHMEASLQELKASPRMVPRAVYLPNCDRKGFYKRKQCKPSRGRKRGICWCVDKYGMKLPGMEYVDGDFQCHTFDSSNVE

B1: PAPP-A E483A (catalytically inactive) (enzyme)
chain: REARGATEEPSPPSRALYFSGRGEQLRLRADLELPRDAFTLQVWLRAEGGQRSPAVITGLYDKCSYISRDRGWVVGIHTISDQDNKDPRYFFSLKTDRARQVTTINAHRSYLPGQWVYLAATYDGQFMKLYVNGAQVATSGEQVGGIFSPLTQKCKVLMLGGSALNHNYRGYIEHFSLWKVARTQREILSDMETHGAHTALPQLLLQENWDNVKHAWSPMKDGSSPKVEFSNAHGFLLDTSLEPPLCGQTLCDNTEVIASYNQLSSFRQPKVVRYRVVNLYEDDHKNPTVTREQVDFQHHQLAEAFKQYNISWELDVLEVSNSSLRRRLILANCDISKIGDENCDPECNHTLTGHDGGDCRHLRHPAFVKKQHNGVCDMDCNYERFNFDGGECCDPEITNVTQTCFDPDSPHRAYLDVNELKNILKLDGSTHLNIFFAKSSEEELAGVATWPWDKEALMHLGGIVLNPSFYGMPGHTHTMIHAIGHSLGLYHVFRGISEIQSCSDPCMETEPSFETGDLCNDTNPAPKHKSCGDPGPGNDTCGFHSFFNTPYNNFMSYADDDCTDSFTPNQVARMHCYLDLVYQGWQPSRKPAPVALAPQVLGHTTDSVTLEWFPPIDGHFFERELGSACHLCLEGRILVQYASNASSPMPCSPSGHWSPREAEGHPDVEQPCKSSVRTWSPNSAVNPHTVPPACPEPQGCYLELEFLYPLVPESLTIWVTFVSTDWDSSGAVNDIKLLAVSGKNISLGPQNVFCDVPLTIRLWDVGEEVYGIQIYTLDEHLEIDAAMLTSTADTPLCLQCKPLKYKVVRDPPLQMDVASILHLNRKFVDMDLNLGSVYQYWVITISGTEESEPSPAVTYIHGSGYCGDGIIQKDQGEQCDDMNKINGDGCSLFCRQEVSFNCIDEPSRCYFHDGDGVCEEFEQKTSIKDCGVYTPQGFLDQWASNASVSHQDQQCPGWVIIGQPAASQVCRTKVIDLSEGISQHAWYPCTISYPYSQLAQTTFWLRAYFSQPMVAAAVIVHLVTDGTYYGDQKQETISVQLLDTKDQSHDLGLHVLSCRNNPLIIPVVHDLSQPFYHSQAVRVSFSSPLVAISGVALRSFDNFDPVTLSSCQRGETYSPAEQSCVHFACEKTDCPELAVENASLNCSSSDRYHGAQCTVSCRTGYVLQIRRDDELIKSQTGPSVTVTCTEGKWNKQVACEPVDCSIPDHHQVYAASFSCPEGTTFGSQCSFQCRHPAQLKGNNSLLTCMEDGLWSFPEALCELMCLAPPPVPNADLQTARCRENKHKVGSFCKYKCKPGYHVPGSSRKSKKRAFKTQCTQDGSWQEGACVPVTCDPPPPKFHGLYQCTNGFQFNSECRIKCEDSDASQGLGSNVIHCRKDGTWNGSFHVCQEMQGQCSVPNELNSNLKLQCPDGYAIGSECATSCLDHNSESIILPMNVTVRDIPHWLNPTRVERVVCTAGLKWYPHPALIHCVKGCEPFMGDNYCDAINNRAFCNYDGGDCCTSTVKTKKVTPFPMSCDLQGDCACRDPQAQEHSRKDLRGYSHG
As usually defined, the Kd is the concentration at which binding is half-saturated. High values mean a looser complex, low ones a tighter complex. On to B1, for which the Kd amounted to 237 nM.
